Assay results: US20200055920A1 (published 2020)
Numbering of substitutions follows the chain as printed. Like-named read-outs stand apart in the source and are kept apart here. Values belong to the binder of their own block, whether it stands above or below them.

Columns and labels:
Assay in all cases: Biacore SPR; receptor-Fc captured by anti-Fc antibody, ligand injected
BMP2 [1] = target: T1, BMP2 (UniProt P12643 283-396)
Protocol: (§1) A Biacore™-based binding assay was used to compare ligand binding selectivity of the single-arm BMPRII-Fc heterodimeric complex described above with that of an BMPRII-Fc homodimeric complex. The single-arm BMPRII-Fc and homodimeric BMPRII-Fc were independently captured onto the system using an anti-Fc antibody. Ligands were injected and allowed to flow over the captured receptor protein.

BMP4 [2] = target: T2, BMP4 (UniProt P12644 293-408)
T2 sequence (looked up): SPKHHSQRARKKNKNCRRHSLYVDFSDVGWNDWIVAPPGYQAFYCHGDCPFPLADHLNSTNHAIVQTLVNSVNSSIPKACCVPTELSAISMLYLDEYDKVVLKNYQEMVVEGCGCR
Protocol: as §1

BMP5 [3] = target: T3, BMP5 (UniProt P22003 317-454, limits assumed)
T3 sequence (looked up): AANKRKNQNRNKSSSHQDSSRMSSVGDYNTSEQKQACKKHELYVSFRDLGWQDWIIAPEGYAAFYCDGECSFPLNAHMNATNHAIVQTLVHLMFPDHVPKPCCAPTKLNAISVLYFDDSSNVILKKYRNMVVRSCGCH
Protocol: as §1

BMP6 [4] = target: T4, BMP6 (UniProt P22004 382-513, limits assumed)
T4 sequence (looked up): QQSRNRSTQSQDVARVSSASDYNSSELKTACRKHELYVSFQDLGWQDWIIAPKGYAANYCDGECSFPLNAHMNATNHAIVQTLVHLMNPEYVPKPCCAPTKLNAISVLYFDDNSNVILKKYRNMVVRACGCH
Protocol: as §1

BMP7 [5] = target: T5, BMP7 (UniProt P18075 293-431)
T5 construct: also called osteogenic protein-1; OP-1
T5 sequence (looked up): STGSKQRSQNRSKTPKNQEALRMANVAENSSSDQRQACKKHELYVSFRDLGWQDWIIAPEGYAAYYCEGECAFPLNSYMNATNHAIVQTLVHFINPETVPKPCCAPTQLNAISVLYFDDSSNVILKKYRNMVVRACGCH
Protocol: as §1

BMP10 [6] = target: T6, BMP10 (UniProt O95393 317-424)
T6 sequence (looked up): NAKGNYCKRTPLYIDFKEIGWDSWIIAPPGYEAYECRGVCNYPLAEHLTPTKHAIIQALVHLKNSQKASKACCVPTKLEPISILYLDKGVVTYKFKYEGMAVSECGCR
Protocol: as §1

BMP15 = target: T7, BMP15 (UniProt O95972 268-392)
T7 construct: also called GDF9b
T7 sequence (looked up): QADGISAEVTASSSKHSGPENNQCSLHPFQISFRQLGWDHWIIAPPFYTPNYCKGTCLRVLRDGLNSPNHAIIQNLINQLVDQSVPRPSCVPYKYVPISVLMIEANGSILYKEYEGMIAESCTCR
Protocol: as §1

GDF7 [7] = target: T8, GDF7 (UniProt Q7Z4P5 322-450, limits assumed)
T8 construct: also called BMP12
T8 sequence (looked up): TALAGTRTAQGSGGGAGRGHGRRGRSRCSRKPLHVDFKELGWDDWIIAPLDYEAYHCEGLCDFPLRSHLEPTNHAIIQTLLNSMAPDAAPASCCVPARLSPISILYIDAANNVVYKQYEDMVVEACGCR
Protocol: as §1

Activin A = target: T9, Activin A (UniProt P08476 311-426)
T9 construct: also called βAβA
T9 sequence (looked up): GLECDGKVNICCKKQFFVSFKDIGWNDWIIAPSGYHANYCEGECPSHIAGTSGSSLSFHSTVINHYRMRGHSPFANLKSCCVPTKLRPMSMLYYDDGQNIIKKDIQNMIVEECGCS
Protocol: (§2) Ligands were injected and allowed to flow over the captured receptor protein.

Activin B = target: T10, Activin B (UniProt P09529 293-407)
T10 construct: also called βBβB
T10 sequence (looked up): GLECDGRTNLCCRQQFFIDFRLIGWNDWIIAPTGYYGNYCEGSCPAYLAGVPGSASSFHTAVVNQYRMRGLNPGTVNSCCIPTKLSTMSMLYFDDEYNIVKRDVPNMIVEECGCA
Protocol: as §2

Activin AB = target: T11, Activin AB (UniProt P08476 311-426; P09529 293-407)
T11 construct: also called βAβB
T11 sequence (looked up) 1: T9 sequence (looked up)
T11 sequence (looked up) 2: T10 sequence (looked up)
Protocol: as §2

Activin AC = target: T12, Activin AC (UniProt P08476 311-426; P55103 237-352)
T12 sequence (looked up) 1: T9 sequence (looked up)
T12 sequence (looked up) 2: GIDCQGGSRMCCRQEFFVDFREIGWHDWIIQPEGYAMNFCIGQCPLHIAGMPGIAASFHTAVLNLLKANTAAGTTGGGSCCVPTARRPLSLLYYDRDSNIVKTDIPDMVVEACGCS
Protocol: as §2

BMP2 [8] = target: T1, BMP2; remark: listed apart in the source
Protocol: as §2

BMP4 [9] = target: T2, BMP4; remark: listed apart in the source
Protocol: as §2

BMP5 [10] = target: T3, BMP5; remark: listed apart in the source
Protocol: as §2

BMP6 [11] = target: T4, BMP6; remark: listed apart in the source
Protocol: as §2

BMP7 [12] = target: T5, BMP7; remark: listed apart in the source
Protocol: as §2

BMP10 [13] = target: T6, BMP10; remark: listed apart in the source
Protocol: as §2

GDF5 = target: T13, GDF5 (UniProt P43026 382-501, limits assumed)
T13 construct: also called BMP14
T13 sequence (looked up): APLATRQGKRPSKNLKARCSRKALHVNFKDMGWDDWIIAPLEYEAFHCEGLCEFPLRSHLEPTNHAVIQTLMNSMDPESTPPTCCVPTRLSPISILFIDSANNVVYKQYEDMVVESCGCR
Protocol: as §2

GDF6 = target: T14, GDF6 (UniProt Q6KF10 336-455, limits assumed)
T14 construct: also called BMP13
T14 sequence (looked up): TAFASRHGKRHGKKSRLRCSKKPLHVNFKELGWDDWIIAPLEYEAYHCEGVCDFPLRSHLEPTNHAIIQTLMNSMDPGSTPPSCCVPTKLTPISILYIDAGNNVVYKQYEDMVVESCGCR
Protocol: as §2

GDF7 [14] = target: T8, GDF7; remark: listed apart in the source
Protocol: as §2

GDF8 = target: T15, GDF8 (UniProt O14793 267-375)
T15 construct: also called myostatin; growth and differentiation factor-8
T15 sequence (looked up): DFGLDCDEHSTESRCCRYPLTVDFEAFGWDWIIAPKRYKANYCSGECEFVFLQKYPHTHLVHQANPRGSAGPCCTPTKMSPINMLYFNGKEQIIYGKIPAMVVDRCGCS
Protocol: as §2

GDF11 = target: T16, GDF11 (UniProt O95390 299-407)
T16 construct: also called BMP11
T16 sequence (looked up): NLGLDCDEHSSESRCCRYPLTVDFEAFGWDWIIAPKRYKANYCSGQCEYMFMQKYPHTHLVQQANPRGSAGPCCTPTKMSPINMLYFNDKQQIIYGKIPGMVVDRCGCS
Protocol: as §2

TGFβ1 = target: T17, TGFβ1 (UniProt P01137 279-390)
T17 construct: also called TGF-beta1
T17 sequence (P01137 279-390 limits assumed): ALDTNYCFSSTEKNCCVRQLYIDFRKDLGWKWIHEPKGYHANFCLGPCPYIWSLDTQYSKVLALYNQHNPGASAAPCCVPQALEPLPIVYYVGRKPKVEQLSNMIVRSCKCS
Protocol: as §2

TGFβ2 = target: T18, TGFβ2 (UniProt P61812 303-414)
T18 construct: also called TGF-beta2
T18 sequence (looked up): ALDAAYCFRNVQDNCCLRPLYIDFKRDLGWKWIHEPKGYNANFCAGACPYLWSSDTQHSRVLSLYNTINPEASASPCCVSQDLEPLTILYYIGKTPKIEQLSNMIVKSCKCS
Protocol: as §2

TGFβ3 = target: T19, TGFβ3 (UniProt P10600 301-412)
T19 construct: also called TGF-beta3
T19 sequence (looked up): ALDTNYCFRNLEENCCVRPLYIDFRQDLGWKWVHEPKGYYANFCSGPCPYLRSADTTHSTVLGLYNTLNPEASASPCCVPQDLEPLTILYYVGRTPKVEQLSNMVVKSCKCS
Protocol: as §2

T1 sequence (P12643 283-396 limits assumed): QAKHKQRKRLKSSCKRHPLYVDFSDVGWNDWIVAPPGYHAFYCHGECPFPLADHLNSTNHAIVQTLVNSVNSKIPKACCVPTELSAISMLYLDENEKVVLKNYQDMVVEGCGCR

binding result (BMP2 [1]): no binding
binding result (BMP4 [2]): no binding
Kd (BMP5 [3]): 36 nM
koff (BMP5 [3]): 0.015 s⁻¹
kon (BMP5 [3]): 410000 M⁻¹ s⁻¹
binding result (BMP6 [4]): no binding
binding result (BMP7 [5]): no binding
Kd (BMP10 [6]): 0.43 nM
koff (BMP10 [6]): 0.0091 s⁻¹
kon (BMP10 [6]): 2.1e+07 M⁻¹ s⁻¹
Kd (BMP15): 0.94 nM
koff (BMP15): 0.067 s⁻¹
kon (BMP15): 7.1e+07 M⁻¹ s⁻¹
Kd (GDF7 [7]): > 190 nM
B1: single-arm BMPRII-Fc heterodimeric complex (Fc fusion)
chain 1: SQNQERLCAFKDPYQQDLGIGESRISHENGTILCSKGSTCYGLWEKSKGDINLVKQGCWSHIGDPQECHYEECVVTTTPPSIQNGTYRFCCCSTDLCNVNFTENFPPPDTTPLSPPHSFNRDETGGGTHTCPPCPAPELLGGPSVFLFPPKPKDTLMISRTPEVTCVVVDVSHEDPEVKFNWYVDGVEVHNAKTKPREEQYNSTYRVVSVLTVLHQDWLNGKEYKCKVSNKALPAPIEKTISKAKGQPREPQVYTLPPSRKEMTKNQVSLTCLVKGFYPSDIAVEWESNGQPENNYKTTPPVLKSDGSFFLYSKLTVDKSRWQQGNVFSCSVMHEALHNHYTQKSLSLSPGK
chain 2: SNTKVDKRVTGGGTHTCPPCPAPELLGGPSVFLFPPKPKDTLMISRTPEVTCVVVDVSHEDPEVKFNWYVDGVEVHNAKTKPREEQYNSTYRVVSVLTVLHQDWLNGKEYKCKVSNKALPAPIEKTISKAKGQPREPQVYTLPPSREEMTKNQVSLTCLVKGFYPSDIAVEWESNGQPENNYDTTPPVLDSDGSFFLYSDLTVDKSRWQQGNVFSCSVMHEALHNHYTQKSLSLSPGK
notes: also called BMPRII-Fc:Fc heterodimer

binding result (Activin A): no binding
binding result (Activin B): no binding
binding result (Activin AB): no binding
binding result (Activin AC): no binding
Kd (BMP2 [8]): 0.31 nM
koff (BMP2 [8]): 0.00025 s⁻¹
kon (BMP2 [8]): 790000 M⁻¹ s⁻¹
Kd (BMP4 [9]): 0.093 nM
koff (BMP4 [9]): 4.6e-05 s⁻¹
kon (BMP4 [9]): 490000 M⁻¹ s⁻¹
Kd (BMP5 [10]): 45 nM
koff (BMP5 [10]): 0.0053 s⁻¹
kon (BMP5 [10]): 120000 M⁻¹ s⁻¹
binding result (BMP6 [11]): no binding
binding result (BMP7 [12]): no binding
binding result (BMP10 [13]): no binding
binding result (GDF5): no binding
binding result (GDF6): no binding
Kd (GDF7 [14]): 22 nM
koff (GDF7 [14]): 0.01 s⁻¹
kon (GDF7 [14]): 460000 M⁻¹ s⁻¹
binding result (GDF8): no binding
binding result (GDF11): no binding
B2: single-arm ALK3-Fc heterodimeric complex (Fc fusion)
chain 1: GAQNLDSMLHGTGMKSDSDQKKSENGVTLAPEDTLPFLKCYCSGHCPDDAINNTCITNGHCFAIIEEDDQGETTLASGCMKYEGSDFQCKDSPKAQLRRTIECCRTNLCNQYLQPTLPPVVIGPFFDGSIRTGGGTHTCPPCPAPELLGGPSVFLFPPKPKDTLMISRTPEVTCVVVDVSHEDPEVKFNWYVDGVEVHNAKTKPREEQYNSTYRVVSVLTVLHQDWLNGKEYKCKVSNKALPAPIEKTISKAKGQPREPQVYTLPPSREEMTKNQVSLTCLVKGFYPSDIAVEWESNGQPENNYDTTPPVLDSDGSFFLYSDLTVDKSRWQQGNVFSCSVMHEALHNHYTQKSLSLSPG
chain 2: B1 chain 2 with E147K, D183K, D190K, D200K
notes: also called ALK3-Fc:Fc heterodimer

Kd (TGFβ1): 0.031 nM
koff (TGFβ1): 0.0047 s⁻¹
kon (TGFβ1): 1.5e+08 M⁻¹ s⁻¹
Kd (TGFβ2): > 61 nM
Kd (TGFβ3): 0.073 nM
koff (TGFβ3): 0.0099 s⁻¹
kon (TGFβ3): 1.4e+08 M⁻¹ s⁻¹
B3: single-arm TGFβRII-Fc heterodimeric complex (Fc fusion)
chain 1: TIPPHVQKSVNNDMIVTDNNGAVKFPQLCKFCDVRFSTCDNQKSCMSNCSITSICEKPQEVCVAVWRKNDENITLETVCHDPKLPYHDFILEDAASPKCIMKEKKKPGETFFMCSCSSDECNDNIIFSEEYNTSNPDTGGGTHTCPPCPAPELLGGPSVFLFPPKPKDTLMISRTPEVTCVVVDVSHEDPEVKFNWYVDGVEVHNAKTKPREEQYNSTYRVVSVLTVLHQDWLNGKEYKCKVSNKALPAPIEKTISKAKGQPREPQVYTLPPSRKEMTKNQVSLTCLVKGFYPSDIAVEWESNGQPENNYKTTPPVLKSDGSFFLYSKLTVDKSRWQQGNVFSCSVMHEALHNHYTQKSLSLSPGK
chain 2: B1 chain 2
notes: also called TGFβRII-Fc:Fc heterodimer
